Reference: paper PMC3984498

Molecular target: V[2]-TRF2ΔBΔM
Assay: split reporter

PCA fluorescence lower than with wild-type TRF2: 45%
Substance: Venus fragment-tagged Ku70 (V[1]-Ku70 / V[2]-Ku70) (from UniProt P12956 1-609) (natural protein)
